Ends that are not written are not given here.
How the values were obtained:
[1] = tested on: Lactobacillus sakei (NBRC15893); experiment: Wide pH-range stability test (spot-on-lawn antimicrobial activity after incubation in buffer); format: physicochemical; parameters: key: A: Good activity; B: Slight influence on activity; C: No activity; conditions: ten times the lowest concentration of Table 3, A = spot diameter 80% or more of control in water
Description: Antimicrobial activity of the antimicrobial peptide was evaluated by a spot-on-lawn method that involved spotting 10 µL of a test liquid 13 on the test bacteria (lawn) (on a soft agar medium 11) (Fig. 1). As the test bacteria, Lactobacillus sakei (NBRC15893) was used. The specific procedure is as follows. Firstly, the test bacteria that were cultured overnight were mixed and diluted with Lactobacilli AOAC agar (soft agar medium 11) in a density of 4×10^7 CFU/mL, and was spread over an MRS plate containing 2% agar (an agar medium 12). Test liquid 13 was spotted thereon, and incubated overnight at 30°C, followed by evaluation of the size of a growth inhibition circle 14 (Fig. 1). It can be determined that the larger the growth inhibition circle, the higher the antimicrobial activity. The fraction with highest antimicrobial activity as determined in the antimicrobial activity test was regarded as a purified active fraction and used in Experiment 4 and Experiment 5 described below. For the polypeptides as set forth in SEQ ID NOs: 1 to 5, 13, and 14 in Table 3, evaluation was carried out to see if they had antimicrobial activity over a wide range of pH. As a Comparative Example, a commercially available nisin A (manufactured by Sigma-Aldrich) was used. Firstly, each peptide was dissolved in the following buffer to prepare a solution of a concentration ten times the lowest concentration specified in Table 3: sodium phosphate buffer (50 mM, pH4), 1x phosphate buffer saline (pH7.4), ammonium chloride-ammonia buffer (50 mM, pH10.0). […] Antimicrobial activity was evaluated based on the size of the spot (the size of the growth inhibition circle). When the size of the spot was equivalent to that of the control (when the diameter of the spot was 80% or more of the control), it was rated as A, and when the size was relatively small but antimicrobial activity was still detected, it was rated as B. When the growth inhibition circle was not observed, it was rated as C. It can be determined that the peptides rated as A or B are stable at the test pHs. […]

[2] = tested on: Lactobacillus sakei (NBRC15893); experiment: Thermal stability test (spot-on-lawn antimicrobial activity after heat treatment); format: physicochemical; parameters: key: A: Good activity; B: Slight influence on activity; C: No activity; conditions: in water, ten times the lowest concentration of Table 3, A = spot diameter 80% or more of control with no heat treatment
Description: Antimicrobial activity of the antimicrobial peptide was evaluated by a spot-on-lawn method that involved spotting 10 µL of a test liquid 13 on the test bacteria (lawn) (on a soft agar medium 11) (Fig. 1). As the test bacteria, Lactobacillus sakei (NBRC15893) was used. The specific procedure is as follows. Firstly, the test bacteria that were cultured overnight were mixed and diluted with Lactobacilli AOAC agar (soft agar medium 11) in a density of 4×10^7 CFU/mL, and was spread over an MRS plate containing 2% agar (an agar medium 12). Test liquid 13 was spotted thereon, and incubated overnight at 30°C, followed by evaluation of the size of a growth inhibition circle 14 (Fig. 1). It can be determined that the larger the growth inhibition circle, the higher the antimicrobial activity. The fraction with highest antimicrobial activity as determined in the antimicrobial activity test was regarded as a purified active fraction and used in Experiment 4 and Experiment 5 described below. For the polypeptides as set forth in SEQ ID NOs: 1 to 5, 13, and 14 in Table 3, evaluation was carried out to see if they had antimicrobial activity after heat treatment. As a Comparative Example, a commercially available nisin A (manufactured by Sigma-Aldrich) was used. Firstly, each peptide was dissolved in water to prepare a solution of a concentration ten times the lowest concentration specified in Table 3. The test solution thus prepared was subjected to heat treatment at 80°C for 30 minutes, or at 100°C for 30 minutes, or at 121°C for 15 minutes. […] Antimicrobial activity was evaluated based on the size of the spot (the size of the growth inhibition circle); when the size of the spot was equivalent to that of the control (when the diameter of the spot was 80% or more of the control), it was rated as A, and when the size was relatively small but activity was still detected, it was rated as B. When the spot was not observed, it was rated as C. It can be determined that the peptides rated as A or B are stable at the test temperatures. […]

[3] = tested on: Candida albicans; experiment: Antimicrobial activity test in liquid culture (growth by OD630); format: cell-based; parameters: key: +: Antimicrobial activity observed; -: No antimicrobial activity observed; conditions: Test conc. 25 µM; culturing 24 to 48 hours
Description: (§1) As a Comparative Example, a commercially available nisin A (manufactured by Sigma-Aldrich) was used. Firstly, each peptide was dissolved in MRS medium to prepare a solution of a concentration of 20 µM to 1000 µM. From the resultant, 10 µl was taken and mixed with various test bacteria and 90 µl of medium intended for culturing the test bacteria, followed by culturing for 24 hours to 48 hours. After culturing, OD630 was measured to check the number of bacteria. When OD630 increased or turbidity was visually observed as compared to the culture liquid before culturing, it can be determined that the test bacteria had grown. […] In the "SEQ ID NO or substance name of peptide" section in Table 5, each of "SEQ ID NO: 3 & SEQ ID NO: 4" and "SEQ ID NO: 13 & SEQ ID NO: 14" means that a combination of the two types of peptides were used in equimolar amounts. The results in Table 5 indicate that the polypeptides as set forth in SEQ ID NOs: 1 to 5, 13, and 14 were effective against gram-positive bacteria and some of these polypeptides were effective against gram-negative bacteria such as E. coli and fungi such as C. albicans.

[4] = tested on: Escherichia coli; experiment: as above; format: cell-based; parameters: key: +: Antimicrobial activity observed; -: No antimicrobial activity observed; conditions: Test conc. 25 µM; culturing 24 to 48 hours
Description: as §1

[5] = tested on: Lactobacillus sakei; experiment: as above; format: cell-based; parameters: key: +: Antimicrobial activity observed; -: No antimicrobial activity observed; conditions: Test conc. 25 µM; culturing 24 to 48 hours
Description: as §1

[6] = tested on: Staphylococcus aureus; experiment: as above; format: cell-based; parameters: key: +: Antimicrobial activity observed; -: No antimicrobial activity observed; conditions: Test conc. 25 µM; culturing 24 to 48 hours
Description: as §1

[7] = tested on: Streptococcus uberis; experiment: as above; format: cell-based; parameters: key: +: Antimicrobial activity observed; -: No antimicrobial activity observed; conditions: Test conc. 25 µM; culturing 24 to 48 hours
Description: as §1

nisin A (ITSISLCTPGCKTGALMGCNMKTATCHCSIHVSK; thioether (positions not given here); not fully specified (some residues, bridges); also: lantibiotic: thioether rings and dehydro residues not placed; UniProt P13068 24-57, looked up) [antimicrobial peptide produced by Lactococcus lactis]
pH Stability pH7 ([1]; 1x phosphate buffer saline (pH7.4), 27°C for 24 hours): C | pH Stability pH10 ([1]; ammonium chloride-ammonia buffer 50 mM pH10.0, 27°C for 24 hours): C | pH Stability pH4 ([1]; sodium phosphate buffer 50 mM pH4, 27°C for 24 hours): A | Thermostability 80°C ([2]; 80°C for 30 minutes): C | Thermostability 100°C ([2]; 100°C for 30 minutes): C | Thermostability 121°C ([2]; 121°C for 15 minutes (autoclave)): C | Antimicrobial activity, test bacteria Candida albicans [3]: - | Antimicrobial activity, test bacteria Escherichia coli [4]: - | Antimicrobial activity, test bacteria Lactobacillus sakei [5]: + | Antimicrobial activity, test bacteria Staphylococcus aureus [6]: + | Antimicrobial activity, test bacteria Streptococcus uberis [7]: +
